This sample holds only a part of the variants without activity.

The chains are these.
B1: TPR 5TU (parent)
chain: GGAUCUUCUCGAUCUAACAAAAAAGACAAAUCUGCCACAAAGCUUGAGAGCAUCUUCGGAUGCAGAGGCGGCAGCCUUCGGUGGCGCGAUAGCGCCAACGUUCUCAACUAUGACACGCAAAACGCGUGCUCCGUUGAAUGGAGUUUAUCAUG

The data set covers variants of B1. The data set is described as follows: polymerase ribozyme fitness, log enrichment relative to wild type (log ratio); higher = more active; in vitro selection for triplet polymerase activity. The gist of the method: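 Fitness compares each genotype's enrichment to that of the wild type on a logarithmic scale, averaging replicates with inverse-variance weights. The logarithm is base 2. Enrichment came from Illumina sequencing of input and output libraries after one triplicate round of in vitro selection, which included frozen incubation at −7 °C, of PCR-built, transcribed mutant libraries of each subunit of a heterodimeric triplet polymerase ribozyme. Only genotypes with ≥10 input reads and ≥1 read per output were kept.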
On to G58C A60G G81U G88A C108G G117C A119U G143C, for which the “polymerase ribozyme fitness (log ratio)” value was ≤ -4.2. With C57G U82A A91C A115G C125A C149A, the “polymerase ribozyme fitness (log ratio)” value is ≤ -4.2. With C57U G59A A73G C79U, the “polymerase ribozyme fitness (log ratio)” value was ≤ -4.2.

Consider G58U G68A U148G, for which the “polymerase ribozyme fitness (log ratio)” value was ≤ -4.2. Take G58A G94A U135G U144C: the “polymerase ribozyme fitness (log ratio)” value was -1.98.

Turning to G58C C76A G86A A147U, the “polymerase ribozyme fitness (log ratio)” value was -2.24. For G59C C95A C131G G136U the value was ≤ -4.2; for G59C G84U G124C, -2.97; for C57U C99G C105U, -1. For A60G G83A U127G G136A A142G the value was -3.28; for G58A C69A U82G A120U U134C, -1.34. Regarding G59A U61A C72A, the “polymerase ribozyme fitness (log ratio)” value was ≤ -4.2.

On to C57U G58A G83A G86A C118U C123A, for which the “polymerase ribozyme fitness (log ratio)” value was -1.76. Regarding U61A A66C G80A U82G, the “polymerase ribozyme fitness (log ratio)” value is ≤ -4.2.

G59C C76A C85G C118U: the “polymerase ribozyme fitness (log ratio)” value was -2.89. With G58C C87U U135C the figure was -2.22. A60C G67U C76A C96U A107G C125U: the “polymerase ribozyme fitness (log ratio)” value was ≤ -4.2. For the variant G58A G92A U127C U135G G143U U151G, the “polymerase ribozyme fitness (log ratio)” value was ≤ -4.2.

On to G58A G84A A142U G152A, for which the “polymerase ribozyme fitness (log ratio)” value was -2.68.

Regarding G59A A150U, the “polymerase ribozyme fitness (log ratio)” value was 0.933. For G59C U146G the value was -0.145. Consider G59C U146C, for which the “polymerase ribozyme fitness (log ratio)” value stood at 0.716. With G59A U134A the figure was -2.02; with G58U G84U A113G U139G, -2.95; with G58A G80U U151G, ≤ -4.2. Take C57U G81C C95A A122C: the “polymerase ribozyme fitness (log ratio)” value is -0.59.

For the variant G59U G65C U109G, the “polymerase ribozyme fitness (log ratio)” value is ≤ -4.2. With G58C G71C G92U C96U U145A the figure was ≤ -4.2. With C57U G83C C87A G94U U146C the figure was ≤ -4.2; with C57U U104C C116G A120U C123A, 0.628. As for C57U A60U C95A C105U C125A, the “polymerase ribozyme fitness (log ratio)” value was -2.41. With C57U A147U the figure was 1.47. With A60U C99A G140U the figure was ≤ -4.2. For C57G U61A G88A U104G, the “polymerase ribozyme fitness (log ratio)” value was -4.19. As to A60C C85G, the “polymerase ribozyme fitness (log ratio)” value is -3.9. With A60C C85A the figure was -2.62; with A60G U144G, 1.35; with G59A A89U C95A A97U C99A C125G, ≤ -4.2. With G59A A89G the figure was -1.1; with G59C G124U, -0.228; with G58C A142U U146A, -1.03. With G58A C76G C125U C132A G133C the figure was ≤ -4.2; with G59U U82A C93A A142C, ≤ -4.2; with G59C C85A, -0.943. As to G58U G71A A91U G92A G126A G133U, the “polymerase ribozyme fitness (log ratio)” value was ≤ -4.2. For G59C A60C C99U A119C the value was ≤ -4.2.

In the case of C57U C75G G81A C87G A120G, the “polymerase ribozyme fitness (log ratio)” value was ≤ -4.2. Consider G59U G84A U104C, for which the “polymerase ribozyme fitness (log ratio)” value is -0.647.

For G59U C95U G133U, the “polymerase ribozyme fitness (log ratio)” value is ≤ -4.2. For G59A A106C A113C C118G the value was ≤ -4.2; for G58A G84A U104G, -0.568; for C57U A115G U144C, ≤ -4.2. For G58A A115C U135C G152U the value was ≤ -4.2; for G59C C69A, -1.79; for G59A C96G, -1.1. For U61A C149U the value was -1.63. Take G58C G67U A91U A107G C108U C116G C125U C129U: the “polymerase ribozyme fitness (log ratio)” value was ≤ -4.2. Turning to A60G A113G C114U U135A, the “polymerase ribozyme fitness (log ratio)” value is -3.05. For C57U U78A G84A C95U U135G the value was ≤ -4.2. For G58U G141C A147U the value was -0.128; for C57U A73C, -1.36; for C57U A73U, -0.507. For U61A A98U the value was -1.28. On to G59U G126A, for which the “polymerase ribozyme fitness (log ratio)” value was 0.622. As for G59A A66C G84A A89U, the “polymerase ribozyme fitness (log ratio)” value is ≤ -4.2. With G59A G100A, the “polymerase ribozyme fitness (log ratio)” value was ≤ -4.2.

Turning to C57U G92U, the “polymerase ribozyme fitness (log ratio)” value is -0.682. Regarding C57U G58C C79U, the “polymerase ribozyme fitness (log ratio)” value was -1.86. For G58C C93A the value was -2.61. For the variant G59A C79A U82A C96A, the “polymerase ribozyme fitness (log ratio)” value is -3.85. For G59U C96G G133C A137C the value was ≤ -4.2. With C57U A89U U101A C125U G141A U146A the figure was ≤ -4.2. Turning to A60G G83A, the “polymerase ribozyme fitness (log ratio)” value was -1.4. With A60G G83C the figure was -0.826.

For G59A C123U G136C C149G, the “polymerase ribozyme fitness (log ratio)” value is -4.17. Consider G59A C85A, for which the “polymerase ribozyme fitness (log ratio)” value was -1.04. With G59A C85G the figure was -2.1; with G59A C93A G141C, -4.03; with C57U G141A, 0.719. In the case of C57U G84U, the “polymerase ribozyme fitness (log ratio)” value was -2.27. For U61A the value was -1.18. Turning to G59C G65C G136U, the “polymerase ribozyme fitness (log ratio)” value was ≤ -4.2. On to G58C C118U U135C U145A, for which the “polymerase ribozyme fitness (log ratio)” value was -1.79.

In the case of G58U U61G, the “polymerase ribozyme fitness (log ratio)” value was -1.81. With C57U G71U the figure was -1.94; with A60G U61G C93U, -2.26.

Regarding G59C U111G, the “polymerase ribozyme fitness (log ratio)” value is ≤ -4.2. G58C C93U A110G: the “polymerase ribozyme fitness (log ratio)” value was -3.82. For G58A C63A, the “polymerase ribozyme fitness (log ratio)” value was 0.255. For G59C C95U G136U the value was -2.05. With C57U C85A the figure was -1.63; with C57U C85U, 0.073; with C57U C69U, -0.915. For G59A U90A A98G C103A the value was ≤ -4.2. For G59A C85G G100A U134G U144G A150C, the “polymerase ribozyme fitness (log ratio)” value is ≤ -4.2. With G59C G81U C95U G141A the figure was -3.32; with G59A C76G U78G C85U G88A G92C, ≤ -4.2; with G59C C93U G124C C125U A147U, -0.985. For U61A C75U the value was -1.92; for G59C U90C C108G A119U A150U, ≤ -4.2; for G58C A66G, -3.76. Regarding G58A G83U A98U C103U, the “polymerase ribozyme fitness (log ratio)” value is -1.15. With G59A A60G U77G U127C the figure was ≤ -4.2; with C57U G59A G67A C93G, ≤ -4.2. With A60U U61C the figure was ≤ -4.2; with A60U G86U, -4.01; with G59C A115C, -0.396. For the variant A60G U102C, the “polymerase ribozyme fitness (log ratio)” value was 0.0901. For G58U A66C U77G A91U C96G A97U the value was ≤ -4.2; for G58C C96U G128U, -3.69; for C57U A64G, -3.91. For C57G U82C C95U C125A C131U U135C U146C the value was -3.38; for G59C C63A G126A, -0.167. With G59A G83C the figure was -0.954; with G58C U82A, 0.644; with G58U U135G, -3.76. As for C57U C116U U139C, the “polymerase ribozyme fitness (log ratio)” value was ≤ -4.2.

G59U C79A G86A A89G A122G G141C: the “polymerase ribozyme fitness (log ratio)” value is ≤ -4.2. For G59A A73U C75U C87A C95A G100U U127G A150C, the “polymerase ribozyme fitness (log ratio)” value is ≤ -4.2. With G59U C114U the figure was -1.62.

As for C57U G58A A60U C69U C76A G88U G141A, the “polymerase ribozyme fitness (log ratio)” value was ≤ -4.2. With G58U U148A the figure was -3.05.

In the case of G59A U82A C95G G136A, the “polymerase ribozyme fitness (log ratio)” value was -1.25. In the case of C57U U61G C76A, the “polymerase ribozyme fitness (log ratio)” value was ≤ -4.2. Take A60G A120G G128C A142G: the “polymerase ribozyme fitness (log ratio)” value was -2.95. Regarding C57U G59A C75G A138G, the “polymerase ribozyme fitness (log ratio)” value was -4.02. For G58A G94A A106C the value was -0.37; for G58C C116G, 0.494.

Turning to G58C C116U, the “polymerase ribozyme fitness (log ratio)” value came out at 0.354. With G59U G86A the figure was -1.19; with G58C C75U C95U C99G U135C, ≤ -4.2; with G58C C96G C125G G143U, ≤ -4.2. On to G58U A97G G112C C149A, for which the “polymerase ribozyme fitness (log ratio)” value was ≤ -4.2. On to C57U U127A U151G, for which the “polymerase ribozyme fitness (log ratio)” value is ≤ -4.2. For G59A G70C C85U A91U the value was ≤ -4.2; for A60G G83A A98G, 0.0303. With G58A U61A the figure was -0.894; with A60U C93U C125U, -2.48; with G58A G84C, -1.94. Consider G59C U102G, for which the “polymerase ribozyme fitness (log ratio)” value was -2.05.

Regarding A60U C129G, the “polymerase ribozyme fitness (log ratio)” value was -3.43. For C57U C95A the value was -0.112; for C57U C87A, -4.12; for C57U A73G G143U U145G, ≤ -4.2. For G59C G71U G88U A98U C116G G124U the value was ≤ -4.2; for G58C G59A U102G A121U U127C, -3.85; for G59C A138C, -3.7.

As for G59C U139A, the “polymerase ribozyme fitness (log ratio)” value is ≤ -4.2. With G59U A60U C85A, the “polymerase ribozyme fitness (log ratio)” value is -2.59. With G59U G88U G94U U102G A147G the figure was ≤ -4.2.

As for A60U A98U, the “polymerase ribozyme fitness (log ratio)” value was -0.598.

With C57G G59A G81C U104G A120U, the “polymerase ribozyme fitness (log ratio)” value was -1.84.

For the variant G59U C93U, the “polymerase ribozyme fitness (log ratio)” value is -3.08. For U61A A66C A73U A91G, the “polymerase ribozyme fitness (log ratio)” value was ≤ -4.2. With G59A U61A C69A A142C the figure was -3.27. With G58A C63U C93A C105A, the “polymerase ribozyme fitness (log ratio)” value was -4.05. Turning to C57U C149U, the “polymerase ribozyme fitness (log ratio)” value was -1.28.

For the variant G59C G86C, the “polymerase ribozyme fitness (log ratio)” value is -3.39.

In the case of C57U C95U U101C, the “polymerase ribozyme fitness (log ratio)” value was -0.863.

G58C G94U C131U: the “polymerase ribozyme fitness (log ratio)” value is -0.209.

On to G59C G141U, for which the “polymerase ribozyme fitness (log ratio)” value is -0.299.

Regarding A60G U104G, the “polymerase ribozyme fitness (log ratio)” value came out at 0.24.

In the case of U61A A106U, the “polymerase ribozyme fitness (log ratio)” value was -2.41. Take G59U C96U A98U: the “polymerase ribozyme fitness (log ratio)” value is -0.711. As to C57U C85A C96G C116U G143C U148A, the “polymerase ribozyme fitness (log ratio)” value is ≤ -4.2. With U61A C69A G86U G117C A119G the figure was -3.92; with G59C G83A C125A, -1.12.

Source of the values: the RNAGym collection of RNA variant scans (doi:10.1073/pnas.2313332121).
